Results published in publication PMC5318860.

Molecular target: SAVSBPM18-L-ABD(KC) fusion (not stated | Lumbricus terrestris)
Test: affinity chromatography; 1-ml columns with about 1 mg of SAVSBPM18-L-ABD(KC) on Sepharose 6B-CL or 1,025 μg of SAVSBPM18 on Affi-Gel 15; 1 mg of biotinylated BSA loaded, above the binding capacity; elution with 10 mM biotin; fractions on SDS-PAGE

Substance: chemically biotinylated bovine serum albumin (BSA) (from UniProt P02769 25-607) (natural protein)
- amount bound per ml of matrix at saturation (μg per ml of matrix): 730
